Each block holds one binder with its values, some of them ahead of it.
Key:
[1] = molecular target: T1, hSIRPα expressed on primary human cells (human, UniProt P78324 31-504); test: flow cytometry on CD14+ enriched monocytes, human donor 2; blocked ligand: DyLight 488-labeled recombinant hCD47/Fc
T1 construct: whole, on cells; also called hSIRPα on primary human CD14+ monocytes; on primary human granulocytes
Description: To assess the blocking ability of hSIRPα.40A, CD14+ enriched monocytes cells were seeded in 96-well round bottomed tissue culture plates and incubated for 45 minutes with FcR Blocking Reagent (Miltenyi Biotec) and hSIRPα.40A antibody (20 μg/mL and dilutions thereof) in PBS/1% BSA at 4° C. […] After this labeling procedure, cells were washed two times, resuspended in PBS/1% BSA containing 0.1 μg/mL DAPI (BioLegend), and analysed by flow cytometry on the FACSVerse (BD Biosciences). Data were processed and analysed with FlowJo V10 software (FlowJo, LLC). […] IC50 values represent the concentration at which half of the inhibition is observed.

human SIRPα variant 1 = molecular target: T2, human SIRPα variant 1 (human, UniProt P78324 31-504); test: CELISA, CHO-K1 transfectants; average of two experiments
T2 construct: full length ORF on transfected CHO-K1 or HEK293 cells; entry includes the signal peptide; also called hSIRPαV1; SIRPαV1
Description: (§1) Binding of the humanized antibodies to hSIRPα was studied in CELISA format. Binding of the hSIRPα antibodies to human SIRPαV1, SIRPαV2, hSIRPβ1, and hSIRPγ was confirmed using CHO-K1 cells that had been transiently transfected with cDNA encoding the full length open reading frame of each of these respective targets subcloned into the pCI-neo vector. CHO-K1.hSIRPαV1, CHO-K1.hSIRPαV2, CHO-K1.hSIRPβ1, and CHO-K1.hSIRPγ cells were seeded in culture medium (DMEM-F12 (Gibco) supplemented with 5% New Born Calf Serum (BioWest) and Pen/Strep (Gibco)) in 96-well flat-bottom tissue culture plates and incubated at 37° C., 5% CO₂ and 95% humidity until cell layers were confluent. Subsequently, culture medium was removed and cells were incubated for 1 hour at 37° C., 5% CO₂ and 95% humidity with purified hSIRPα antibodies (10 μg/mL and dilutions thereof). Next, cells were washed with PBS-T and incubated for 1 hour at 37° C., 5% CO₂ and 95% humidity with goat-anti-human IgG-HRP conjugate (Jackson Immuno Research) or goat-anti-mouse IgG-HRP (Southern Biotech). Subsequently, cells were washed three times with PBS-T and anti-hSIRPα immunoreactivity was visualized with TMB Stabilized Chromogen (Invitrogen). Reactions were stopped with 0.5 M H₂SO₄ and absorbances were read at 450 and 610 nm. […] In Table 13 the EC50 values of the humanized hSIRPα antibodies are depicted.
(§2) Table 13: Binding of humanized and parental hSIRPα.50A antibodies to CHO-K1.hSIRPαV1, CHO-K1.hSIRPαV2, CHO-K1.hSIRPβ1, and CHO-K1.hSIRPγ cells.

human SIRPα variant 2 [2] = molecular target: T3, human SIRPα variant 2 (human, UniProt P78324 31-504); test: as above
T3 construct: full length ORF on transfected CHO-K1 cells; also called hSIRPαV2; SIRPαV2
Description: as §1, §2

[3] = molecular target: T4, hSIRPβ1 transcript variant 3/hSIRPβL (human, UniProt Q5TFQ8 30-398); test: as above
T4 construct: also called human SIRPβL
Description: The binding specificity of antibodies hSIRPα.40A and hSIRPα.50A to hSIRPα were compared in a CELISA format. In short, CHO-K1 cells were transiently transfected with hSIRPαV1, hSIRPαV2, hSIRPβ1, hSIRPβL, and hSIRPγ cDNAs. Subsequently, hSIRPα binding was assessed by CELISA using CHO-K1.hSIRPαV1, CHO-K1.hSIRPαV2, CHO-K1.hSIRPβ1, CHO-K1.hSIRPβL, and CHO-K1.hSIRPγ cells. Detection of bound antibody was done with goat-anti-mouse IgG-HRP (Southern Biotech).

human SIRPα variant 2 [4] = molecular target: T3, human SIRPα variant 2; test: flow cytometry, blockade of DyLight488-hCD47/Fc binding to THP-1 cells
Description: For this purpose, THP-1 (ATCC TIB-202) and U-937 (ATCC CRL-1593.2) monocyte cell lines were used as the source of hSIRPα in the assay. THP-1 and U-937 cells were seeded in 96-well round bottomed tissue culture plates and incubated for 45 minutes with FcR Blocking Reagent (Miltenyi Biotec) and hSIRPα.50A antibody (200 μg/mL and dilutions thereof) in PBS/1% BSA at 4° C. […] After this labeling procedure, cells were washed two times, resuspended in PBS/1% BSA containing 0.1 μg/mL DAPI (BioLegend), and analysed by flow cytometry on the FACSCanto II (BD Biosciences). Data were processed and analysed with FlowJo V10 software (FlowJo, LLC).
As depicted in FIG. 4 and the following Table 11, binding of recombinant hCD47 fused to an Fc domain of human IgG1 was monitored in the presence of increasing amounts of the hSIRPα.50A antibody. Antibody hSIRPα.50A blocked the hSIRPα/hCD47 interaction, using the flow cytometry-based method described above. […] IC50 values represent the concentration at which half of the inhibition is observed.

T3 sequence (P78324 other isoform, or with tags, fused parts or gaps mutant limits assumed): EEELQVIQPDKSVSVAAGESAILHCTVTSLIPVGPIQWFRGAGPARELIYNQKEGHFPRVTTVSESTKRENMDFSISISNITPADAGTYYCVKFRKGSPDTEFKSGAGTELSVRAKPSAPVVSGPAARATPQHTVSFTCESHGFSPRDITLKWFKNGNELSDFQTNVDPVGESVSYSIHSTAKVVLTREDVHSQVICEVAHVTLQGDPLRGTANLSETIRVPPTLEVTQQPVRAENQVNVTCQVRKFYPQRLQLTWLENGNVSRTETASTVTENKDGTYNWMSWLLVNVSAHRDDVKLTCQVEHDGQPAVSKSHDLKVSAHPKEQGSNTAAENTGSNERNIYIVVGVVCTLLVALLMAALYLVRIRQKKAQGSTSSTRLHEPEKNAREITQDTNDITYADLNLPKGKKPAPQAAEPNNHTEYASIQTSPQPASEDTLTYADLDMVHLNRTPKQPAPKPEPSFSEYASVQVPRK
T4 sequence (Q5TFQ8 30-398 limits assumed, change not shown): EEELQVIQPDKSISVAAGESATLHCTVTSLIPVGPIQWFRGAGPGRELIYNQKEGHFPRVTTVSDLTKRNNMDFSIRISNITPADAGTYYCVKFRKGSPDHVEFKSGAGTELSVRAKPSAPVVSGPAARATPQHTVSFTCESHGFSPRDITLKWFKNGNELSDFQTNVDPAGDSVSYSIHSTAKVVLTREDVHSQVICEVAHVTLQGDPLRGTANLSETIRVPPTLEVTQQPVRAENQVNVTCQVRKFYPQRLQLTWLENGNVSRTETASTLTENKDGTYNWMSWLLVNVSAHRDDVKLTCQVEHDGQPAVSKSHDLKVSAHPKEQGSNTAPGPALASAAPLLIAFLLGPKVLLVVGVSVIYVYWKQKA
T1 sequence (P78324 31-504): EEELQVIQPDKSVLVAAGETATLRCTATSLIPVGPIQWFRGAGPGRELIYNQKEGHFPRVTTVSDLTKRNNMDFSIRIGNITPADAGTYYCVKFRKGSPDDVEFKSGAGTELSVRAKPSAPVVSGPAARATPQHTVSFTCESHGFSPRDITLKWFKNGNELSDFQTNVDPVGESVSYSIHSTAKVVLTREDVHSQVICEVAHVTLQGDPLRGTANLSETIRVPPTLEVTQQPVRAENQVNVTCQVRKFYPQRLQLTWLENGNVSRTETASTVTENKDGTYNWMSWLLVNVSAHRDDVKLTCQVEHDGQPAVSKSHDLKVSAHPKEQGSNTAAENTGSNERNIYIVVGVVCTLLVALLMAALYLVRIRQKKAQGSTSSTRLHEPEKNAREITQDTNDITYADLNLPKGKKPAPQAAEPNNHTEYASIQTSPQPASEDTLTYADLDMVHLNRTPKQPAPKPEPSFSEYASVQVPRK
T2 sequence (P78324 31-504 limits assumed, change not shown): as the sequence (P78324 31-504) above

IC50 (read off the curve) [1]: ~0.5 nM
B1: hSIRPα.40A (antibody, mouse IgG1, kappa, V domains shown)
VH: EVQFQQSGTVLARPGTSVKMSCKASGSTFTSYWMHWVKQGPGQGLQWIGAIYPVNNDTTYNQKFKGKAELTVVTSTSTAYMEVSSLTNEDSAVYYCTRSFYYSLDAAWFVYWGQGTLVTVSA
VL: DIQMTQSPSSLSASLGERVSLTCRASQDIGSRLNWLQQEPDGTIKRLIYATSSLDSGVPKRFSGSRSGSDYSLTISGLESEDFVDYYCLQYASSPFTFGGGTKLEINR
notes: mouse antibody, full chains without signal peptide; also called mouse hSIRPα.40A

EC50 (human SIRPα variant 1): 1.36 nM | EC50 (human SIRPα variant 2 [2]): 1.3 nM | EC50 [3]: 0.632 nM | IC50 (human SIRPα variant 2 [4]): 4.61 nM
B2: hSIRPα.50A (antibody, V domains shown)
VH: QVQLQQSGPELVKPGASVRISCKASGFTFTNYYIHWVKQRPGQGLEWIGWIYPGNVNTKYNEKFKAKATLTADKSSTTAYMQLSSLASEDSAVYFCARPTIIATDFDVWGAGTTVTVSS
VL: DIVMTQSHKFMSTSVGDRVNITCKASQGVGTAVGWYQQKPGQSPRLLIYWASTRHTGVPDRFTGSGSGTDFSLAISNVQSEDLADYFCQQYSTYPFTFGGGTNLEIK
notes: light chain constant domain not tied; also called mouse hSIRPα.50A; hSIRPα.50A.mIgG1
